Stoichiometry N data for 1 substance are collected here from article PMC2120187.

This assay addresses murine IgG heavy chain (murine). Briefly: immunoprecipitation with anti-mouse IgG and non-reducing SDS-PAGE.

As for murine IgG heavy chain, the stoichiometry N (commonly a count of units in the complex or per binding partner) turned out to be 2.
